Reference: the supplement of paper PMC10724198
± gives the standard deviation of the averaged measurements.

Assays:
Saccharomyces cerevisiae [1] = assay: protein stability index of tFT-peptide fusion (C-terminal peptide) (PSI (0-1 scale)); higher = more stable (slower turnover)
Method: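 MPS profiling in S. cerevisiae of the tFT-X12 degron library: putative degron peptides plus stable controls, 12 aa, fused to the C-terminus of a sfGFP-mCherry timer. Cells are FACS-sorted into 8 mCherry/sfGFP bins and deep-sequenced. PSI runs from 0 (unstable) to 1 (stable). Backgrounds are wild type, das1Δ and doa10Δ at 30 °C, and wild type, das1Δ, cdc34-1 and cdc53-1 at 37 °C; 2-3 technical replicates each.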

Saccharomyces cerevisiae [2] = assay: as above; conditions: genetic background: wild type; temperature: 30 C
[3] = genetic background: cdc34-1, temperature: 37 C
[4] = genetic background: cdc53-1, temperature: 37 C
[5] = genetic background: das1 deletion, temperature: 30 C
[6] = genetic background: das1 deletion, temperature: 37 C
[7] = genetic background: doa10 deletion, temperature: 30 C
[8] = genetic background: wild type, temperature: 30 C
[9] = genetic background: wild type, temperature: 37 C
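Further: PSI is a weighted mean of sequencing reads over stability bins, variants kept only with over 10 reads, mCherry proximal and sfGFP distal, peptide attached via GGGS linker.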

| Sequence | protein stability index (Saccharomyces cerevisiae [1]; [3]) | protein stability index (Saccharomyces cerevisiae [1]; [4]) | protein stability index (Saccharomyces cerevisiae [1]; [5]) | protein stability index (Saccharomyces cerevisiae [1]; [6]) | protein stability index (Saccharomyces cerevisiae [1]; [7]) | protein stability index (Saccharomyces cerevisiae [1]; [8]) | protein stability index (Saccharomyces cerevisiae [1]; [9]) | protein stability index (Saccharomyces cerevisiae [2]) |
| --- | --- | --- | --- | --- | --- | --- | --- | --- |
| PVLYSFSLWIHL | 0.34 ± 0.049 | 0.441 ± 0.024 | 0.299 ± 0.028 | 0.457 ± 0.011 | 0.2273 ± 0.00038 | 0.255 ± 0.02 | 0.389 ± 0.02 | 0.361 ± 0.0082 |
| PVWLFLVRAIKG | 0.431 ± 0.048 | 0.455 ± 0.024 | 0.321 ± 0.028 | 0.5125 ± 0.002 | 0.262 ± 0.0072 | 0.33 ± 0.029 | 0.512 ± 0.056 | 0.431 ± 0.0097 |
| PWLLHTPLSLVF | 0.321 ± 0.032 | 0.356 ± 0.018 | 0.335 ± 0.017 | 0.403 ± 0.0063 | 0.3182 ± 0.00076 | 0.349 ± 0.0058 | 0.4 ± 0.0051 | 0.434 ± 0.0077 |
| QCLSYFFPVPVA | 0.073 ± 0.042 | 0.0838 ± 0.012 | 0.186 ± 0.03 | 0.227 ± 0.0065 | 0.147 ± 0.014 | 0.182 ± 0.02 | 0.192 ± 0.018 | 0.258 ± 0.035 |
| QGRRKEKAVTLN | 0.652 ± 0.12 | 0.685 ± 0.016 | 0.648 ± 0.041 | 0.729 ± 0.019 | 0.175 ± 0.035 | 0.193 ± 0.032 | 0.241 ± 0.022 | 0.3 ± 0.015 |
| QKGLFYCVILYC | 0.169 ± 0.019 | 0.253 ± 0.034 | 0.214 ± 0.027 | 0.3829 ± 0.0019 | 0.148 ± 0.017 | 0.156 ± 0.032 | 0.272 ± 0.0046 | 0.316 ± 0.017 |
| RDGAHFLLILVC | 0.0425 ± 0.0098 | 0.0913 ± 0.022 | 0.176 ± 0.033 | 0.2536 ± 0.0015 | 0.088 ± 0.025 | 0.125 ± 0.025 | 0.154 ± 0.019 | 0.203 ± 0.059 |
| RFFFSSFPLLIS | 0.327 ± 0.049 | 0.2628 ± 0.0026 | 0.349 ± 0.047 | 0.471 ± 0.014 | 0.207 ± 0.0091 | 0.199 ± 0.025 | 0.307 ± 0.016 | 0.282 ± 0.013 |
| RFLVVVRFYWRC | 0.288 ± 0.087 | 0.424 ± 0.013 | 0.245 ± 0.028 | 0.441 ± 0.0079 | 0.168 ± 0.015 | 0.214 ± 0.035 | 0.36 ± 0.0067 | 0.439 ± 0.044 |
| RGFIYCSFVVRL | 0.4134 ± 0.00058 | 0.466 ± 0.029 | 0.328 ± 0.025 | 0.532 ± 0.012 | 0.301 ± 0.016 | 0.33 ± 0.021 | 0.465 ± 0.022 | 0.412 ± 0.0052 |
| RGLLLKILIASG | 0.376 ± 0.029 | 0.463 ± 0.034 | 0.305 ± 0.019 | 0.48 ± 0.0095 | 0.188 ± 0.012 | 0.213 ± 0.026 | 0.382 ± 0.0086 | 0.237 ± 0.081 |
| RGVGSGGLEGIG | 0.509 ± 0.06 | 0.5457 ± 0.0032 | 0.5178 ± 0.001 | 0.543 ± 0.025 | 0.51 ± 0.004 | 0.514 ± 0.021 | 0.5404 ± 0.0019 | 0.541 ± 0.061 |
| RGVPPPPWTPPP | 0.706 ± 0.041 | 0.7482 ± 0.0045 | 0.6792 ± 0.0067 | 0.731 ± 0.02 | 0.653 ± 0.012 | 0.661 ± 0.0081 | 0.716 ± 0.014 | 0.539 ± 0.062 |
| RIWRLLIIIIKK | 0.387 ± 0.015 | 0.428 ± 0.11 | 0.236 ± 0.085 | 0.565 ± 0.056 | 0.232 ± 0.023 | 0.259 ± 0.016 | 0.456 ± 0.012 | 0.325 ± 0.12 |
| RKRKKISEIIAI | 0.664 ± 0.054 | 0.708 ± 0.075 | 0.589 ± 0.036 | 0.69 ± 0.039 | 0.519 ± 0.037 | 0.572 ± 0.041 | 0.637 ± 0.003 | 0.52 ± 0.047 |
| RLPFPVVLFLLF | 0.392 ± 0.033 | 0.465 ± 0.028 | 0.387 ± 0.041 | 0.515 ± 0.026 | 0.3 ± 0.008 | 0.28 ± 0.024 | 0.404 ± 0.011 | 0.352 ± 0.013 |
| RLVMAVRVAAGG | 0.509 ± 0.025 | 0.532 ± 0.0023 | 0.347 ± 0.033 | 0.55975 ± 0.00038 | 0.327 ± 0.011 | 0.349 ± 0.015 | 0.524 ± 0.031 | 0.451 ± 0.034 |
| RMLSLFFPLRTL | 0.651 ± 0.068 | 0.69994 ± 0.00052 | 0.624 ± 0.02 | 0.724 ± 0.024 | 0.196 ± 0.011 | 0.243 ± 0.048 | 0.4527 ± 0.0036 | 0.395 ± 0.035 |
| RNWVVDGWRRFP | 0.656 ± 0.03 | 0.7425 ± 0.0034 | 0.684 ± 0.019 | 0.73543 ± 0.00011 | 0.17 ± 0.0075 | 0.192 ± 0.039 | 0.525 ± 0.031 | 0.282 ± 0.069 |
| RPCLSALRFRFF | 0.68 ± 0.037 | 0.764 ± 0.029 | 0.655 ± 0.042 | 0.727 ± 0.064 | 0.141 ± 0.023 | 0.162 ± 0.026 | 0.3204 ± 0.00076 | 0.206 ± 0.015 |
| RPHPLHIPRRLA | 0.624 ± 0.054 | 0.6848 ± 0.0035 | 0.684 ± 0.01 | 0.692 ± 0.047 | 0.146 ± 0.011 | 0.216 ± 0.072 | 0.391 ± 0.037 | 0.238 ± 0.028 |
| RQINEKKKLYMI | 0.513 ± 0.029 | 0.673 ± 0.14 | 0.639 ± 0.024 | 0.727 ± 0.041 | 0.1 ± 0.013 | 0.102 ± 0.028 | 0.182 ± 0.029 | 0.215 ± 0.033 |
| RRGLIFFLCCPA | 0.38308 ± 5.8e-05 | 0.4335 ± 0.0019 | 0.336 ± 0.027 | 0.472 ± 0.013 | 0.31 ± 0.0072 | 0.332 ± 0.039 | 0.432 ± 0.011 | 0.466 ± 0.053 |
| RRLYERNKNNKQ | 0.696 ± 0.024 | 0.741 ± 0.049 | 0.611 ± 0.036 | 0.729 ± 0.061 | 0.311 ± 0.019 | 0.387 ± 0.067 | 0.649 ± 0.013 | 0.435 ± 0.072 |
| RRRRGGQSPALR | 0.651 ± 0.049 | 0.674 ± 0.0087 | 0.71 ± 0.032 | 0.6928 ± 0.0059 | 0.735 ± 0.022 | 0.717 ± 0.03 | 0.6636 ± 0.0065 | 0.711 ± 0.015 |
| RRTTIFDTKEPP | 0.561 ± 0.02 | 0.563 ± 0.028 | 0.523 ± 0.062 | 0.5752 ± 0.0014 | 0.532 ± 0.028 | 0.511 ± 0.019 | 0.5689 ± 0.0054 | 0.462 ± 0.017 |
| RRVFPLIIVLLF | 0.115 ± 0.023 | 0.152 ± 0.014 | 0.172 ± 0.031 | 0.279 ± 0.016 | 0.174 ± 0.0077 | 0.126 ± 0.022 | 0.221 ± 0.013 | 0.202 ± 0.0087 |
| RSCKSIRGIFVC | 0.606 ± 0.068 | 0.7199 ± 0.0018 | 0.543 ± 0.018 | 0.719 ± 0.022 | 0.2 ± 0.0066 | 0.229 ± 0.02 | 0.388 ± 0.013 | 0.315 ± 0.027 |
| RSFPCITVFIRA | 0.514 ± 0.011 | 0.469 ± 0.029 | 0.328 ± 0.036 | 0.50913 ± 0.00021 | 0.325 ± 0.03 | 0.323 ± 0.023 | 0.5088 ± 0.0019 | 0.4235 ± 0.0035 |
| RSKWEKLDKIVS | 0.675 ± 0.032 | 0.777 ± 0.045 | 0.629 ± 0.051 | 0.681 ± 0.0091 | 0.314 ± 0.022 | 0.396 ± 0.047 | 0.575 ± 0.018 | 0.455 ± 0.0083 |
